Biological target: the molecule itself
Assay: native gel or EMSA

| Protein | stoichiometry N |
| --- | --- |
| myc-laforin wild type (pCMVmyc-laforin WT) (natural protein, human, UniProt O95278 1-331, looked up) MRFRFGVVVPPAVAGARPELLVVGSRPELGRWEPRGAVRLRPAGTAAGDGALALQEPGLWLGEVELAAEEAAQDGAEPGRVDTFWYKFLKREPGGELSWEGNGPHHDRCCTYNENNLVDGVYCLPIGHWIEATGHTNEMKHTTDFYFNIAGHQAMHYSRILPNIWLGSCPRQVEHVTIKLKHELGITAVMNFQTEWDIVQNSSGCNRYPEPMTPDTMIKLYREEGLAYIWMPTPDMSTEGRVQMLPQAVCLLHALLEKGHIVYVHCNAGVGRSTAAVCGWLQYVMGWNLRKVQYFLMAKRPAVYIDEEALARAQEDFFQKFGKVRSSVCSL | 2 |
| myc-laforin S25D (pCMVmyc-laforin S25D) (natural protein, human, UniProt O95278 1-331, looked up) MRFRFGVVVPPAVAGARPELLVVGDRPELGRWEPRGAVRLRPAGTAAGDGALALQEPGLWLGEVELAAEEAAQDGAEPGRVDTFWYKFLKREPGGELSWEGNGPHHDRCCTYNENNLVDGVYCLPIGHWIEATGHTNEMKHTTDFYFNIAGHQAMHYSRILPNIWLGSCPRQVEHVTIKLKHELGITAVMNFQTEWDIVQNSSGCNRYPEPMTPDTMIKLYREEGLAYIWMPTPDMSTEGRVQMLPQAVCLLHALLEKGHIVYVHCNAGVGRSTAAVCGWLQYVMGWNLRKVQYFLMAKRPAVYIDEEALARAQEDFFQKFGKVRSSVCSL | 2 |

Source: paper PMC3299407 (Biochemical Journal, 2011)
